Measured values from patent publication US20160251438A1 (LUDWIG INSTITUTE FOR CANCER RESEARCH, published 2016).
Positions count from the first letter of the chain named.

B1: LHG-10.4-D (antibody, human IgG1, V domains shown)
VH: EVQLVQPGAELRNSGASVKVSCKASGYRFTSYYIDWVRQAPGQGLEWMGRIDPEDGGTKYAQKFQGRVTFTADTSTSTAYVELSSLRSEDTAVYYCARNEWETVVVGDLMYEYEYWGQGTQVTVSS
VL: DIQMTQSPSSLSASLGDRVTITCQASQSISSYLAWYQQKPGQAPKLLIYGTSRLKTGVPSRFSGSGSGTSFTLTISGLEAEDAGTYYCQQYYSAPVTFGQGTKVELK
B2: LHG-10.4 (antibody, human IgG1, V domains shown)
VH: B1 VH
VL: B1 VL
notes: VK-shuffled variant of LHG-10, human IgG1
B3: LHG-10.5-D (antibody, human IgG1, V domains shown)
VH: B1 VH
VL: DIQMTQSPSSLSPSLGDRVTITCQASQTISSFLAWYHQKPGQPPKLLIYRASIPQTGVPSRFSGSGSGTSFTLTIGGLEAEDAGTYYCQQYVSAPPTFGQGTKVELK
B4: LHG-10.5 (antibody, human IgG1, V domains shown)
VH: B1 VH
VL: B3 VL
notes: as for B2
B5: LHG-10-D (antibody, human IgG1, V domains shown)
VH: B1 VH
VL: B1 VL with S9T, T51A, K55Q, Y92D, A94L
B6: LHG-10.6 (antibody, human IgG1, V domains shown)
VH: B1 VH
VL: B1 VL with K45N, L46I, T51A, Y92A, A94V
notes: as for B2
B7: LHG-10.6-D (antibody, human IgG1, V domains shown)
VH: B1 VH
VL: B1 VL with K45N, L46I, T51A, Y92A, A94V
notes: also called LHG-10.6N297Q
B8: LHG-10.3-D (antibody, human IgG1, V domains shown)
VH: B1 VH
VL: B1 VL with S30V, T51A, K55Q, Y92A, K103G
B9: LHG-10.3 (antibody, human IgG1, V domains shown)
VH: B1 VH
VL: B1 VL with S30V, T51A, K55Q, Y92A, K103G
notes: as for B2
B10: MHGARP8 (antibody, V domains shown)
VH: QVQLKESGPGLVAPSQSLSITCTVSGFSLTGYGINWVRQPPGKGLEWLGMIWSDGSTDYNSVLTSRLRISKDNSNSQVFLKMNSLQVDDTARYYCARDRNYYDYDGAMDYWGQGTSVTVSS
VL: DIQVTQSSSYLSVSLGDRVTITCKASDHIKNWLAWYQQKPGIAPRLLVSGATSLEAGVPSRFSGSGSGKNFTLSITSLQTEDVATYYCQQYWSTPWTFGGGTTLEIR
notes: biotinylated for FACS; also called MHG-8

What follows are binders tested against T1, recombinant soluble human GARP-TGFβ1 complex (human, UniProt Q14392 20-628; P01137 30-390) (assay: SPR (Biacore), hGARP-TGFβ1 immobilised).
T1 construct: co-expressed in HEK293E, purified by the Strep-Tag; TGFβ consists of LAP and mature TGFβ; also called shGARP-TGFβ; rhGARP-TGFβ
T1 sequence (Q14392 other isoform, or with tags, fused parts or gaps limits assumed, chain 1 of 2): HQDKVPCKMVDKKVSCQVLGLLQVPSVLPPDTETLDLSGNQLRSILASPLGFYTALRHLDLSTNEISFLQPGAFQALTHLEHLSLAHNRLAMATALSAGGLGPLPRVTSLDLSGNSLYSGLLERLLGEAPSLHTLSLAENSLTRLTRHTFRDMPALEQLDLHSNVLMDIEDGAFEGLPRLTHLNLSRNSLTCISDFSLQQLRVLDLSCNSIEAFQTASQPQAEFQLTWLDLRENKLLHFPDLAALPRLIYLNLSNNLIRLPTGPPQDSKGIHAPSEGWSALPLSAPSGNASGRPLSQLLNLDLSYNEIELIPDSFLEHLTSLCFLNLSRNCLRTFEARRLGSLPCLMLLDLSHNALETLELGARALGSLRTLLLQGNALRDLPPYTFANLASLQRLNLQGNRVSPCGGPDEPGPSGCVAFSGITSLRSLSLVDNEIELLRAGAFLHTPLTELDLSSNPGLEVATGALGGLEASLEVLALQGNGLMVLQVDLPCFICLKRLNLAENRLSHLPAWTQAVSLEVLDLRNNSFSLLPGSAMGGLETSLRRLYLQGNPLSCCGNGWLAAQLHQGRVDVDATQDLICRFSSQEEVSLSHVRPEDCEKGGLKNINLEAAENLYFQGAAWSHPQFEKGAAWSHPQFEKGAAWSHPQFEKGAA
T1 sequence (P01137 30-390 limits assumed, chain 2 of 2): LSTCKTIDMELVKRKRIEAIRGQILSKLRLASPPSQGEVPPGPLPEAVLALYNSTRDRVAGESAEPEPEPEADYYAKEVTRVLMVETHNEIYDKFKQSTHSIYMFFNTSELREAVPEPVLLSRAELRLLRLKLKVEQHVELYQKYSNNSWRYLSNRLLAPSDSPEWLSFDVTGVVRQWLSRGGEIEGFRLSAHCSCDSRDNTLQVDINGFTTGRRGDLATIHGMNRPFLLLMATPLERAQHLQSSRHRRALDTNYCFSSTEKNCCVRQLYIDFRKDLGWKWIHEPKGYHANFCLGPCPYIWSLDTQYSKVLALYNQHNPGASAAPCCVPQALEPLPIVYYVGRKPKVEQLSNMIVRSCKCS

Question: How did the Kd turn out when B1 was run?
Answer: 0.0327 nM

Question: What about the “fold improvement of KD (reference LHG-10-D)” value of the same binder?
Answer: 5.7 fold

Question: And the “fold improvement of ka (reference LHG-10-D)” value?
Answer: 0.4 fold

Question: What about the “fold improvement of kd (reference LHG-10-D)” value of the same binder?
Answer: 2.2 fold

Question: What about the koff of the same binder?
Answer: 1.21e-05 s⁻¹

Question: What about the kon of the same binder?
Answer: 371000 M⁻¹ s⁻¹

Question: What does the source list for B2?
Answer: Kd: 0.0291 nM; fold improvement of KD (reference LHG-10): 4.5 fold; fold improvement of ka (reference LHG-10): 0.5 fold; fold improvement of kd (reference LHG-10): 2.4 fold; koff: 1.3e-05 s⁻¹; kon: 448000 M⁻¹ s⁻¹

Question: B3 was tested. Which Kd did it give?
Answer: 0.028 nM

Question: And the “fold improvement of KD (reference LHG-10-D)” value?
Answer: 6.6 fold

Question: What about the “fold improvement of ka (reference LHG-10-D)” value of the same binder?
Answer: 0.4 fold

Question: And the “fold improvement of kd (reference LHG-10-D)” value?
Answer: 2.4 fold

Question: And the koff?
Answer: 1.07e-05 s⁻¹

Question: What about the kon of the same binder?
Answer: 383000 M⁻¹ s⁻¹

Question: What does the source list for B4?
Answer: Kd: 0.0331 nM; fold improvement of KD (reference LHG-10): 4 fold; fold improvement of ka (reference LHG-10): 0.6 fold; fold improvement of kd (reference LHG-10): 2.3 fold; koff: 1.37e-05 s⁻¹; kon: 415000 M⁻¹ s⁻¹

Question: For B5, which Kd is on record?
Answer: 0.185 nM

Question: And the “fold improvement of KD (reference LHG-10-D)” value?
Answer: 1 fold

Question: What about the “fold improvement of ka (reference LHG-10-D)” value of the same binder?
Answer: 1 fold

Question: And the “fold improvement of kd (reference LHG-10-D)” value?
Answer: 1 fold

Question: And the koff?
Answer: 2.62e-05 s⁻¹

Question: What about the kon of the same binder?
Answer: 142000 M⁻¹ s⁻¹

Question: How did the Kd turn out when B6 was run?
Answer: 0.0159 nM

Question: What about the “fold improvement of KD (reference LHG-10)” value of the same binder?
Answer: 8.2 fold

Question: What about the “fold improvement of ka (reference LHG-10)” value of the same binder?
Answer: 0.9 fold

Question: What about the “fold improvement of kd (reference LHG-10)” value of the same binder?
Answer: 7.1 fold

Question: What about the koff of the same binder?
Answer: 4.4e-06 s⁻¹

Question: And the kon?
Answer: 276000 M⁻¹ s⁻¹

Question: What does the source list for B7?
Answer: Kd: 0.0216 nM; fold improvement of KD (reference LHG-10-D): 8.6 fold; fold improvement of ka (reference LHG-10-D): 0.5 fold; fold improvement of kd (reference LHG-10-D): 4.3 fold; koff: 6.15e-06 s⁻¹; kon: 284000 M⁻¹ s⁻¹

Question: How did the Kd turn out when B8 was run?
Answer: 0.0224 nM

Question: What about the “fold improvement of KD (reference LHG-10-D)” value of the same binder?
Answer: 8.3 fold

Question: What about the “fold improvement of ka (reference LHG-10-D)” value of the same binder?
Answer: 0.6 fold

Question: What about the “fold improvement of kd (reference LHG-10-D)” value of the same binder?
Answer: 5.1 fold

Question: What about the koff of the same binder?
Answer: 5.18e-06 s⁻¹

Question: And the kon?
Answer: 231000 M⁻¹ s⁻¹

Question: With B9 as the binder, how does the Kd read?
Answer: 0.0222 nM

Question: What about the “fold improvement of KD (reference LHG-10)” value of the same binder?
Answer: 5.9 fold

Question: What about the “fold improvement of ka (reference LHG-10)” value of the same binder?
Answer: 0.8 fold

Question: And the “fold improvement of kd (reference LHG-10)” value?
Answer: 4.9 fold

Question: What about the koff of the same binder?
Answer: 6.38e-06 s⁻¹

Question: What about the kon of the same binder?
Answer: 287000 M⁻¹ s⁻¹

Each binder was assayed against T2, human TGF-β1 (latent) (human, UniProt P01137 30-390) (assay: FACS, 293T + hTGFB1 only [cont.) B]).
T2 construct: from transfected hTGFB1; also called hTGF-β1; hTGFB1
T2 sequence (P01137 30-390 limits assumed): as the sequence (P01137 30-390 limits assumed, chain 2 of 2) above
Excerpt: No latent TGF-β is detected on their surface with an anti-LAP antibody. Transfection of GARP or TGFB1 alone induces no or low surface LAP, respectively, whereas co-transfection of GARP and TGFB1 induces high surface LAP as a result of latent TGF-β1 binding and presentation by GARP (FIG. 14, part B, left histograms).

Question: Does B10 bind?
Answer: no binding
